Values of other authors as cited in PMC3433420.
Like-named read-outs stand apart in the source and are kept apart here.

What was measured:
Conditions in all cases: cited from earlier work
SYK-NC (Homo sapiens) [1] = target: SYK-NC (Homo sapiens) (UniProt P43405)
PIK3R1-N (Homo sapiens) = PIK3R1-N (Homo sapiens) (UniProt P27986)
PLCG2-NC (Homo sapiens) = PLCG2-NC (Homo sapiens) (UniProt P16885)
RASA1-N (Homo sapiens) = RASA1-N (Homo sapiens) (UniProt P20936)
VAV1 (Homo sapiens) = VAV1 (Homo sapiens) (UniProt P15498)
Chain of VAV1 (Homo sapiens) (P15498 666-770): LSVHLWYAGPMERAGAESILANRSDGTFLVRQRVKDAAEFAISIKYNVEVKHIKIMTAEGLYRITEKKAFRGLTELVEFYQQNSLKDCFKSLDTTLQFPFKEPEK

PIK3R1-NC (Homo sapiens) [2] = target: PIK3R1-NC (Homo sapiens) (UniProt P27986)
Chain of PIK3R1-NC (Homo sapiens) (P27986 328-723): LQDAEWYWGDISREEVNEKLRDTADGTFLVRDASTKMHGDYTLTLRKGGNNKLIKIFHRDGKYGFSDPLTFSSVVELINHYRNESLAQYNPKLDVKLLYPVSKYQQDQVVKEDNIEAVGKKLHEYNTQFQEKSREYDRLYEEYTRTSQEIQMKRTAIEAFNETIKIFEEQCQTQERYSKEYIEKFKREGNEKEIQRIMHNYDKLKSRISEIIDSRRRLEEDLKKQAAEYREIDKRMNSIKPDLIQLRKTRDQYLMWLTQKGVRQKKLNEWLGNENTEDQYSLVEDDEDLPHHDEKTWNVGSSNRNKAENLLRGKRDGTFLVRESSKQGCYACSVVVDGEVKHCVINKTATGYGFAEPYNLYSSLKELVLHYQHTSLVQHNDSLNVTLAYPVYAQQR

SH2B2 (Homo sapiens) = SH2B2 (Homo sapiens) (UniProt O14492)
Chain of SH2B2 (Homo sapiens) (O14492 412-520): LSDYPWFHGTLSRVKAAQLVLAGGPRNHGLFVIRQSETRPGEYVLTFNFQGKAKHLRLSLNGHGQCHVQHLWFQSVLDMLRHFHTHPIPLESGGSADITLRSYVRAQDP

ITK (Homo sapiens) = ITK (Homo sapiens) (UniProt Q08881)
Chain of ITK (Homo sapiens) (Q08881 234-343): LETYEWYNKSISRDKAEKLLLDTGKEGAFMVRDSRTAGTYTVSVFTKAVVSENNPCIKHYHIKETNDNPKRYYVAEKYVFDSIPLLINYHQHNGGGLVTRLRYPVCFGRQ

SOCS1 (Homo sapiens) = SOCS1 (Homo sapiens) (UniProt O15524)
Chain of SOCS1 (Homo sapiens) (O15524 74-179): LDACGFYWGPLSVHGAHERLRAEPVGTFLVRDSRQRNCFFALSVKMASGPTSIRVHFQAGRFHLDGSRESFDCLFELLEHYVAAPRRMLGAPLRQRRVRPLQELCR

PIK3R1-NC (Homo sapiens) [3] = target: PIK3R1-NC (Homo sapiens) (UniProt P27986); remark: listed apart in the source
PIK3R1-C (Homo sapiens) [4] = target: PIK3R1-C (Homo sapiens) (UniProt P27986)
Chain of PIK3R1-C (Homo sapiens) (P27986 328-723): as the sequence (P27986 328-723) above

NCK2 (Homo sapiens) = NCK2 (Homo sapiens) (UniProt O43639)
Chain of NCK2 (Homo sapiens) (O43639 280-380): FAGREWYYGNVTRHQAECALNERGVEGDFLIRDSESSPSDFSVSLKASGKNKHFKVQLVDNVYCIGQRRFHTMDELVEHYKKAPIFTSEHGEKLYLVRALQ

PIK3R2-NC (Homo sapiens) = PIK3R2-NC (Homo sapiens) (UniProt O00459)
Chain of PIK3R2-NC (Homo sapiens) (O00459 325-721): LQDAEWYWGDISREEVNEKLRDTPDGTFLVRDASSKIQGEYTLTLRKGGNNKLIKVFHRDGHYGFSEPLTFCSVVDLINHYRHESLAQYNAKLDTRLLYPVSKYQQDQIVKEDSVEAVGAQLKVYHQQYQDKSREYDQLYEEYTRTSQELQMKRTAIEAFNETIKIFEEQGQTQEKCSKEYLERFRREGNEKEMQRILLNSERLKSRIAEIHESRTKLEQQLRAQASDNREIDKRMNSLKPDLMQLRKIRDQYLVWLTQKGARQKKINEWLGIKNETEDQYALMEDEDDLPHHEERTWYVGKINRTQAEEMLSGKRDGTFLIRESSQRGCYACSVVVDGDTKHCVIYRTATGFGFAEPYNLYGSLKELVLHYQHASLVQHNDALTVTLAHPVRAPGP

SYK-NC (Homo sapiens) [5] = target: SYK-NC (Homo sapiens) (UniProt P43405); remark: listed apart in the source
BLK (Homo sapiens) = BLK (Homo sapiens) (UniProt P51451)
Chain of BLK (Homo sapiens) (P51451 119-225): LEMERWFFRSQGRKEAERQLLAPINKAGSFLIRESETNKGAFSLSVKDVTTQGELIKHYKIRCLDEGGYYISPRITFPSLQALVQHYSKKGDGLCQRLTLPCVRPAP

SUPT6H (Homo sapiens) = SUPT6H (Homo sapiens) (UniProt Q7KZ85)
Chain of SUPT6H (Homo sapiens) (Q7KZ85 1320-1436): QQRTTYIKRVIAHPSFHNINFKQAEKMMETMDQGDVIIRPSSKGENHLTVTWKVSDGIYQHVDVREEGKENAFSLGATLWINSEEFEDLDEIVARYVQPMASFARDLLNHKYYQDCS

SHC4 (Homo sapiens) = SHC4 (Homo sapiens) (UniProt Q6S5L8)
Chain of SHC4 (Homo sapiens) (Q6S5L8 521-622): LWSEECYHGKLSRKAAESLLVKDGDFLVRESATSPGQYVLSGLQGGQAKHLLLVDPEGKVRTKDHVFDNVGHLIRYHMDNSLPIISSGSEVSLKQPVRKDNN

SH2D1B (Homo sapiens) = SH2D1B (Homo sapiens) (UniProt O14796)
Chain of SH2D1B (Homo sapiens) (O14796 1-106): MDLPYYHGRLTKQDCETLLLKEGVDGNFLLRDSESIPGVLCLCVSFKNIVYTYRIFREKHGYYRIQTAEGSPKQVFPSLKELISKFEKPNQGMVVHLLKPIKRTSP

TENC1 (Homo sapiens) [6] = target: TENC1 (Homo sapiens) (UniProt Q63HR2)
Chain of TENC1 (Homo sapiens) (Q63HR2 1135-1252): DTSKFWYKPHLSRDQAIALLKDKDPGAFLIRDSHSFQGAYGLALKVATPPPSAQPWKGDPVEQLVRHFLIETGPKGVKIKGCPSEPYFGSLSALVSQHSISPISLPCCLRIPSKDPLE

PLCG2-N (Homo sapiens) = PLCG2-N (Homo sapiens) (UniProt P16885)
Chain of PLCG2-N (Homo sapiens) (P16885 527-740): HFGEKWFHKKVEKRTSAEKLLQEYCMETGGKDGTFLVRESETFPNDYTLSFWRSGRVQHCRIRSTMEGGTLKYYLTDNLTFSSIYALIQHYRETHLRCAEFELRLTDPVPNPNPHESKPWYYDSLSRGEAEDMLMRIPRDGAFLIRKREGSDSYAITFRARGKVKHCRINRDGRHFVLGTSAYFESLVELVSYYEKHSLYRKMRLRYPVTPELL

SH2D1A (Homo sapiens) = SH2D1A (Homo sapiens) (UniProt O60880)
Chain of SH2D1A (Homo sapiens) (O60880 1-109): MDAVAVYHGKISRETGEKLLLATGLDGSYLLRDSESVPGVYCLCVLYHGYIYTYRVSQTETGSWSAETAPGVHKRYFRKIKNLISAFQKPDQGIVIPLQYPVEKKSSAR

HSH2D (Homo sapiens) = HSH2D (Homo sapiens) (UniProt Q96JZ2)
Chain of HSH2D (Homo sapiens) (Q96JZ2 29-130): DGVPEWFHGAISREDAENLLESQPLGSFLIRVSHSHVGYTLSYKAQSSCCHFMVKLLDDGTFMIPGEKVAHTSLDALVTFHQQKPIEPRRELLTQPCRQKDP

SOCS3 (Homo sapiens) = SOCS3 (Homo sapiens) (UniProt O14543)
Chain of SOCS3 (Homo sapiens) (O14543 41-147): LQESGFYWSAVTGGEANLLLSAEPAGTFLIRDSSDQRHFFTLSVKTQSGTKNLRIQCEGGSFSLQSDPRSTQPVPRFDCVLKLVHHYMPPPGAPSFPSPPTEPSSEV

TNS1 (Homo sapiens) = TNS1 (Homo sapiens) (UniProt Q9HBL0)
Chain of TNS1 (Homo sapiens) (Q9HBL0 1562-1681): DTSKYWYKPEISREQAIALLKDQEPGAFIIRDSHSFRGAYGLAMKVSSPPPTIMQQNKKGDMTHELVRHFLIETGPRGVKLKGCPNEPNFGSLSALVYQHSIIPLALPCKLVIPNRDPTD

FER (Homo sapiens) = FER (Homo sapiens) (UniProt P16591)
Chain of FER (Homo sapiens) (P16591 455-555): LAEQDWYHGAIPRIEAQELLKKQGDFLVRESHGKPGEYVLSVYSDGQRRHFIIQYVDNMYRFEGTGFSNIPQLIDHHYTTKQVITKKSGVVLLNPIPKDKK

CRK (Homo sapiens) = CRK (Homo sapiens) (UniProt P46108)
Chain of CRK (Homo sapiens) (P46108 8-123): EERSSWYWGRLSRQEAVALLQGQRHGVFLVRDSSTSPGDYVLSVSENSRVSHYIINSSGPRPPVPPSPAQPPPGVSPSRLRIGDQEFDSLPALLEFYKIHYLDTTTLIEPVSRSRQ

PLCG1-NC (Homo sapiens) = PLCG1-NC (Homo sapiens) (UniProt P19174)
Chain of PLCG1-NC (Homo sapiens) (P19174 545-761): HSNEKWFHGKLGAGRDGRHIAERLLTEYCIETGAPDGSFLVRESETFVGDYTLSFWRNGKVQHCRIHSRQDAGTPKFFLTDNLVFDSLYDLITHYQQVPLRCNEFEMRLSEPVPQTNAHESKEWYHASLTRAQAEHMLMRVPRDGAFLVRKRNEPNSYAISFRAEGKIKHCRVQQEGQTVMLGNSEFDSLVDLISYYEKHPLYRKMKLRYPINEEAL

TENC1 (Homo sapiens) [7] = target: TENC1 (Homo sapiens) (UniProt Q63HR2); remark: listed apart in the source
PIK3R1-C (Homo sapiens) [8] = target: PIK3R1-C (Homo sapiens) (UniProt P27986); remark: listed apart in the source
VAV2 (Homo sapiens) = VAV2 (Homo sapiens) (UniProt P52735)
Chain of VAV2 (Homo sapiens) (P52735 668-772): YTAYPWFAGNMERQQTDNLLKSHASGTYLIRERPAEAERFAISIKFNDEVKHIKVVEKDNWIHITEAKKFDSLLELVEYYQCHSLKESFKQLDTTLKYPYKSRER

Chain of PLCG2-NC (Homo sapiens) (P16885 527-740): as the sequence (P16885 527-740) above
Chain of RASA1-N (Homo sapiens) (P20936 176-446): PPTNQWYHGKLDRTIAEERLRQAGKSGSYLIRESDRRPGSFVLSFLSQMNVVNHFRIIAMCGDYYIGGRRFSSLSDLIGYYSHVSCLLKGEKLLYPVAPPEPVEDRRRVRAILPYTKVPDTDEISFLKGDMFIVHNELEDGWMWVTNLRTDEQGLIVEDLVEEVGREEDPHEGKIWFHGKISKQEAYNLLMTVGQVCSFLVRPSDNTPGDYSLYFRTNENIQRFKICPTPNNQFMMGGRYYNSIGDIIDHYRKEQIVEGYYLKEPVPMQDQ
Chain of PIK3R1-N (Homo sapiens) (P27986 328-723): as the sequence (P27986 328-723) above

In the case of …pYLIPQQGFd, the apparent Kd (screen) (SYK-NC (Homo sapiens) [1]) is given as 611 nM, the apparent Kd (screen) (PIK3R1-N (Homo sapiens)) is given as 646 nM and the apparent Kd (screen) (PLCG2-NC (Homo sapiens)) is given as 2000 nM. For the same substance, the apparent Kd (screen) (RASA1-N (Homo sapiens)) was 488 nM, the apparent Kd (screen) (VAV1 (Homo sapiens)) was 1050 nM and the apparent Kd (screen) (PIK3R1-NC (Homo sapiens) [2]) was 295 nM.

For …pYLVPQQGF, the apparent Kd (screen) (SH2B2 (Homo sapiens)) is given as 2000 nM, the apparent Kd (screen) (ITK (Homo sapiens)) is given as 2000 nM and the apparent Kd (screen) (SOCS1 (Homo sapiens)) is given as 2000 nM. For the same substance, the apparent Kd (screen) (PIK3R1-NC (Homo sapiens) [3]) was 1640 nM, the apparent Kd (screen) (PIK3R1-C (Homo sapiens) [4]) was 2000 nM and the apparent Kd (screen) (NCK2 (Homo sapiens)) was 2000 nM. For the same substance, the apparent Kd (screen) (PIK3R2-NC (Homo sapiens)) was 2000 nM.

For …pYWDQDPPE, the apparent Kd (screen) (SYK-NC (Homo sapiens) [5]) is listed as 456 nM, the apparent Kd (screen) (BLK (Homo sapiens)) is listed as 52 nM and the apparent Kd (screen) (SUPT6H (Homo sapiens)) is listed as 2000 nM. The apparent Kd (screen) (SHC4 (Homo sapiens)) was 2000 nM, the apparent Kd (screen) (SH2D1B (Homo sapiens)) was 2000 nM and the apparent Kd (screen) (TENC1 (Homo sapiens) [6]) was 843 nM. The apparent Kd (screen) (PLCG2-N (Homo sapiens)) was 601 nM, the apparent Kd (screen) (SH2D1A (Homo sapiens)) was 2000 nM and the apparent Kd (screen) (HSH2D (Homo sapiens)) was 2000 nM. The apparent Kd (screen) (SOCS3 (Homo sapiens)) was 2000 nM and the apparent Kd (screen) (TNS1 (Homo sapiens)) was 2000 nM.

In the case of …pYEEMRAFQ, the apparent Kd (screen) (FER (Homo sapiens)) is listed as 499 nM, the apparent Kd (screen) (CRK (Homo sapiens)) is listed as 1500 nM and the apparent Kd (screen) (PLCG1-NC (Homo sapiens)) is listed as 499 nM. For the same substance, the apparent Kd (screen) (TENC1 (Homo sapiens) [7]) was 2000 nM, the apparent Kd (screen) (PIK3R1-C (Homo sapiens) [8]) was 64 nM and the apparent Kd (screen) (VAV2 (Homo sapiens)) was 2000 nM.
